Earlier results on two molecules are cited in patent US20240366723A1, “COMBINATION THERAPY FOR THE TREATMENT OF ENTERIC NEUROPATHIES” (TRANSFERT PLUS, LIMITED PARTNERSHIP, priority 2021, published 2024).

The conditions of this data set: literature reports, various models.

B1: BMP4: Bone morphogenetic protein 4 (protein, UniProt P12644 293-408, looked up)
Bone morphogenetic protein 4: SPKHHSQRARKKNKNCRRHSLYVDFSDVGWNDWIVAPPGYQAFYCHGDCPFPLADHLNSTNHAIVQTLVNSVNSSIPKACCVPTELSAISMLYLDEYDKVVLKNYQEMVVEGCGCR
Take B1: the Reported neurotrophic activity result is on record as “BMP signaling is necessary for neural crest cell”.

B2: MANF: Mesencephalic Astrocyte Derived Neurotrophic Factor (protein, UniProt P55145 25-182, looked up)
Mesencephalic …: LRPGDCEVCISYLGRFYQDLKDRDVTFSPATIENELIKFCREARGKENRLCYYIGATDDAATKIINEVSKPLAHHIPVEKICEKLKKKDSQICELKYDKQIDLSTVDLKKLRVKELKKILDDWGETCKGCAEKSDYIRKINELMPKYAPKAASARTDL
Turning to B2, the Reported neurotrophic activity entry is recorded as “MANF has neuroregenerative activity via differentiation”.
